This assay concerns the target GST-Hmt1p (S. cerevisiae) (UniProt P38074).

Results on one substance are retold here after publication PMC2791397.

GST-Hmt1p (S. cerevisiae), sequence (P38074 whole entry): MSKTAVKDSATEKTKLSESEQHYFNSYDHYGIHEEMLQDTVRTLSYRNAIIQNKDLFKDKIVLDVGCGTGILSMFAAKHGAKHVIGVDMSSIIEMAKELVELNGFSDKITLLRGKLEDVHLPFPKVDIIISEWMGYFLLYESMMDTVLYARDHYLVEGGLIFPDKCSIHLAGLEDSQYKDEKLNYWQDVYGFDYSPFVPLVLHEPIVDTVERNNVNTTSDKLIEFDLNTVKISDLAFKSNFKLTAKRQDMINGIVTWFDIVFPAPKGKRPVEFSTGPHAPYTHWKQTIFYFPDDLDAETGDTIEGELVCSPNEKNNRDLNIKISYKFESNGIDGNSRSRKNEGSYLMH

“synthetic histone H4 peptide (residues 1-18) with acetyllysine at position 8 (from UniProt P02309 2-19)”: the KM of Hmt1p-catalysed methylation of the H4 peptide (3H-SAM, Hanes/Wolffe plot) turned out to be 0.059 µM.
